Data as given in paper PMC3324619.

What was measured:
[1] = target: CytERM-EGFP (not stated | Aequorea victoria) (UniProt P00180)
CytERM-TagRFP = CytERM-TagRFP (UniProt P00180)

Chain of CytERM-TagRFP (P00180 whole entry): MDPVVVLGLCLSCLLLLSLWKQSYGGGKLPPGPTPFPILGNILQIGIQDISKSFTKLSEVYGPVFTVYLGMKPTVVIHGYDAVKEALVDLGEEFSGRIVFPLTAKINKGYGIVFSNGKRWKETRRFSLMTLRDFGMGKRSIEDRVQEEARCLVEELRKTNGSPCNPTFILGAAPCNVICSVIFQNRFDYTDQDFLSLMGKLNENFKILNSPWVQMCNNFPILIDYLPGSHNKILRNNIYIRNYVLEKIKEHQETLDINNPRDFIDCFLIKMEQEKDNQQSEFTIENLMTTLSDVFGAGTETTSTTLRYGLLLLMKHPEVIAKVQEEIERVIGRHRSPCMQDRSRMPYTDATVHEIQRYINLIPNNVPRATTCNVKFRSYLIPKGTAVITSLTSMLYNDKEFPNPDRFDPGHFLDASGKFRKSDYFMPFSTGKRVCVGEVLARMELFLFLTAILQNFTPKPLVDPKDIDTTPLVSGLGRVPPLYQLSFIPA

| OSER assay: average structure area, U2OS cells [1] | OSER assay: ratio of structure MFI to nuclear envelope MFI, U2OS cells (CytERM-TagRFP) | Substance |
| --- | --- | --- |
| 8.7 μm^2 |  | CytERM-EGFP (from UniProt P00180 1-29) |
|  | 3.9 | CytERM-TagRFP (from UniProt P00180 1-29) |
